Assay results reported in PMC9482650, “Quantitative fragmentomics allow affinity mapping of interactomes” (Nature Communications, 2022).

Tests used:
Test in all cases: holdup assay
Design in all cases: key: below the threshold = too weak to quantify, mostly under pKd 3.1 to 4
FRMPD2_3, Q68DX3 = target: FRMPD2_3, Q68DX3
MAGI2_4, Q86UL8 = target: MAGI2_4, Q86UL8
NHERF3_4, Q5T2W1 = target: T1, NHERF3_4, Q5T2W1
T1 sequence (Q5T2W1 373-468, limits assumed, looked up): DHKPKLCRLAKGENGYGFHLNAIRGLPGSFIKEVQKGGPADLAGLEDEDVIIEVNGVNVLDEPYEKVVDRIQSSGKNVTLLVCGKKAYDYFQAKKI

LAP2, Q96RT1 = target: LAP2, Q96RT1
Sequence of LAP2, Q96RT1 (Q96RT1 other isoform, or with tags, fused parts or gaps): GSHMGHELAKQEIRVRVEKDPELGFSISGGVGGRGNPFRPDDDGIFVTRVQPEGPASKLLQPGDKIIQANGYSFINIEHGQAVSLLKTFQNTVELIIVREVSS

LNX1_3, Q8TBB1 = target: LNX1_3, Q8TBB1
Sequence of LNX1_3, Q8TBB1 (Q8TBB1 500-596): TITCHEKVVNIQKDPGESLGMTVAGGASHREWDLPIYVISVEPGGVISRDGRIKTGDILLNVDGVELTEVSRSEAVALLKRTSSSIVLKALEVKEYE

FRMPD2_2, Q68DX3 = target: FRMPD2_2, Q68DX3
Sequence of FRMPD2_2, Q68DX3 (Q68DX3 944-1038): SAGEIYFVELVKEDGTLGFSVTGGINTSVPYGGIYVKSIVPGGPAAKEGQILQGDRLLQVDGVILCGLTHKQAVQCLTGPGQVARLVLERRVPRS

GRIP2_7, Q9C0E4 = target: GRIP2_7, Q9C0E4
Sequence of GRIP2_7, Q9C0E4 (Q9C0E4 934-1023): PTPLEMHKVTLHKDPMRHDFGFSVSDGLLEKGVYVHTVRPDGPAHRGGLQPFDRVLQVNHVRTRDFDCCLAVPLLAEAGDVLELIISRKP

CASK, O14936 = target: CASK, O14936
Sequence of CASK, O14936 (O14936 487-570): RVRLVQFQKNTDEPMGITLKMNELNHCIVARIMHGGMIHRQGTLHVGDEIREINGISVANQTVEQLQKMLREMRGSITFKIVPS

RADIL, Q96JH8 = target: T2, RADIL, Q96JH8
T2 sequence (Q96JH8 971-1071, limits assumed, looked up): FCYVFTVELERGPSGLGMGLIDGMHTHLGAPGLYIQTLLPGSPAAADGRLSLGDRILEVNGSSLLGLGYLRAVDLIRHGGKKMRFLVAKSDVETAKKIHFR

PDZD2_2, O15018 = target: T3, PDZD2_2, O15018
T3 sequence (O15018 329-429, limits assumed, looked up): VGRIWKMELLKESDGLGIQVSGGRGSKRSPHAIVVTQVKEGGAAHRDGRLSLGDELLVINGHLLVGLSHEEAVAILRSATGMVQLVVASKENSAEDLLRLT

APBA1_2, Q02410 = target: T4, APBA1_2, Q02410
T4 sequence (Q02410 742-832, limits assumed, looked up): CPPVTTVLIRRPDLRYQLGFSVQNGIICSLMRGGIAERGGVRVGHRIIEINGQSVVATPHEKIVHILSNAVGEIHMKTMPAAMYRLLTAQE

PCLO, Q9Y6V0 = target: T5, PCLO, Q9Y6V0
T5 sequence (Q9Y6V0 4491-4600, limits assumed, looked up): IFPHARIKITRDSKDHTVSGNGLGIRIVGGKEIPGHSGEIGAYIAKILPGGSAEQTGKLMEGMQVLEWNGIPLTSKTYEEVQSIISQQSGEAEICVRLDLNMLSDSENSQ

FRMPD2_1, Q68DX3 = target: FRMPD2_1, Q68DX3
Sequence of FRMPD2_1, Q68DX3 (Q68DX3 770-861): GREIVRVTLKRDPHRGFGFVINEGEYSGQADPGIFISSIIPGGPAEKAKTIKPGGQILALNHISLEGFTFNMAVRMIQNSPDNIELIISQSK

PDZD7_3, Q9H5P4 = target: T6, PDZD7_3, Q9H5P4
T6 sequence (Q9H5P4 857-944, limits assumed, looked up): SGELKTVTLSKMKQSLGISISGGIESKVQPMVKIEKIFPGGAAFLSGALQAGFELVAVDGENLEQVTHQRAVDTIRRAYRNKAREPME

LIN7B, Q9HAP6 = target: T7, LIN7B, Q9HAP6
T7 sequence (Q9HAP6 88-185, limits assumed, looked up): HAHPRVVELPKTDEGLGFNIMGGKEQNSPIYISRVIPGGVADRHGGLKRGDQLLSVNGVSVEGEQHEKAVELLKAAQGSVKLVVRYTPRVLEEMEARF

MAGI1_2, Q96QZ7 = target: MAGI1_2, Q96QZ7
Sequence of MAGI1_2, Q96QZ7 (Q96QZ7 456-580): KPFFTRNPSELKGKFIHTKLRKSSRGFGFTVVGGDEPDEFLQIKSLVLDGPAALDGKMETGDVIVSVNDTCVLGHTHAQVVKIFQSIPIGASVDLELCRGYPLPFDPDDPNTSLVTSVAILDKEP

DLG1_1, Q12959 = target: DLG1_1, Q12959
MPP7, Q5T2T1 = target: T8, MPP7, Q5T2T1
T8 sequence (Q5T2T1 134-230, limits assumed, looked up): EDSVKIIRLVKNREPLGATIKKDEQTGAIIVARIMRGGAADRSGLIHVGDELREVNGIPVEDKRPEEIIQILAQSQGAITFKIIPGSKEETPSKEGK

LNX1_1, Q8TBB1 = target: LNX1_1, Q8TBB1
Sequence of LNX1_1, Q8TBB1 (Q8TBB1 261-371): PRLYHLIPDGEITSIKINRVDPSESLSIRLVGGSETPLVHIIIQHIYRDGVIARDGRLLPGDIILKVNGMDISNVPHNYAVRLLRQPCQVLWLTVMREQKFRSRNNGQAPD

GRIP1_4, Q9Y3R0 = target: T9, GRIP1_4, Q9Y3R0
T9 sequence (Q9Y3R0 467-571, limits assumed, looked up): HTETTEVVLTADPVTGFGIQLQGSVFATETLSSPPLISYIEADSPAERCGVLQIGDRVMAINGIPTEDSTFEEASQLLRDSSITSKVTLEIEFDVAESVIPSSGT

MPP6, Q9NZW5 = target: T10, MPP6, Q9NZW5
T10 sequence (Q9NZW5 125-219, limits assumed, looked up): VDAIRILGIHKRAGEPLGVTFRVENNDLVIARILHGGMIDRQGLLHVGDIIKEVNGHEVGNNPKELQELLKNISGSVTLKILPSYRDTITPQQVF

GIPC2, Q8TF65 = target: GIPC2, Q8TF65
Sequence of GIPC2, Q8TF65 (Q8TF65 112-203): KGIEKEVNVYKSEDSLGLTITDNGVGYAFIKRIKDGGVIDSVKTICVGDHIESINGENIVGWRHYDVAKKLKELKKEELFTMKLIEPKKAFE

GRIP1_3, Q9Y3R0 = target: T11, GRIP1_3, Q9Y3R0
T11 sequence (Q9Y3R0 247-346, limits assumed, looked up): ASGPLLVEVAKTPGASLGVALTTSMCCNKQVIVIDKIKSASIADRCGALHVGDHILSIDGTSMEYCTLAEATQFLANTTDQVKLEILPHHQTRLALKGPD

DLG4_3, P78352 = target: DLG4_3, P78352
Sequence of DLG4_3, P78352 (P78352 306-403): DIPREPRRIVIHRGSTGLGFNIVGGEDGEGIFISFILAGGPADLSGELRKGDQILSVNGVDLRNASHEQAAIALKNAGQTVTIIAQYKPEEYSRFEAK

Inadl_2, Q8NI35 = target: Inadl_2, Q8NI35
Sequence of Inadl_2, Q8NI35 (Q8NI35 238-335): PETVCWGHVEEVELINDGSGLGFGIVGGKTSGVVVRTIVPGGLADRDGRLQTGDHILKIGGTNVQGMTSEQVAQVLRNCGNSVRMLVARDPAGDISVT

GRIP2_6, Q9C0E4 = target: GRIP2_6, Q9C0E4
Sequence of GRIP2_6, Q9C0E4 (Q9C0E4 648-740): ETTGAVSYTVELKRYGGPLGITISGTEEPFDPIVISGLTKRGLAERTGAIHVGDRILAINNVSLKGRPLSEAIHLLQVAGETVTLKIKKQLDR

GORASP1, Q9BQQ3 = target: GORASP1, Q9BQQ3
Sequence of GORASP1, Q9BQQ3 (Q9BQQ3 1-208): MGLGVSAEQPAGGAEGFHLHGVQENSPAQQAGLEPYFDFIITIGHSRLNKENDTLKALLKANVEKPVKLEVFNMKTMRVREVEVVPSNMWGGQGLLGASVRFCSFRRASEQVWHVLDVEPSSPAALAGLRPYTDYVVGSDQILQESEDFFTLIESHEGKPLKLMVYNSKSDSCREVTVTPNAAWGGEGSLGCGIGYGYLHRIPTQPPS

[1] = plain residues with an end cap or a label only (N-terminal biotin on a linker: ado-ado)
[2] = plain residues with an end cap or a label only (N-terminal biotin on a linker: ttds)
[3] = plain residues with an end cap or a label only (N-terminal biotin on a linker: none)

Sequence of FRMPD2_3, Q68DX3 (Q68DX3 1073-1166): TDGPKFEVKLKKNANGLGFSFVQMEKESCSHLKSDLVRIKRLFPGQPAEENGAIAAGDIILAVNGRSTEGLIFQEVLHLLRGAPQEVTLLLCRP
Sequence of MAGI2_4, Q86UL8 (Q86UL8 772-865): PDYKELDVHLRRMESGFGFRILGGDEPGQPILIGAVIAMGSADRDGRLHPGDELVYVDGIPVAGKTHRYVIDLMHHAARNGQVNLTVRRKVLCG

## RGGFGRQTQI [NCBP2L, A6PVI3]
FRMPD2_3, Q68DX3; [1]
  pKd: below the threshold
MAGI2_4, Q86UL8; [1]
  pKd: below the threshold
NHERF3_4, Q5T2W1; [1]
  pKd: below the threshold
LAP2, Q96RT1; [1]
  pKd: below the threshold
LNX1_3, Q8TBB1; [1]
  pKd: below the threshold
FRMPD2_2, Q68DX3; [1]
  pKd: below the threshold
GRIP2_7, Q9C0E4; [1]
  pKd: below the threshold
CASK, O14936; [1]
  pKd: below the threshold
RADIL, Q96JH8; [1]
  pKd: below the threshold
PDZD2_2, O15018; [1]
  pKd: 3.76
APBA1_2, Q02410; [1]
  pKd: below the threshold
PCLO, Q9Y6V0; [1]
  pKd: below the threshold
FRMPD2_1, Q68DX3; [1]
  pKd: below the threshold
PDZD7_3, Q9H5P4; [1]
  pKd: 4.38
LIN7B, Q9HAP6; [1]
  pKd: 3.89
MAGI1_2, Q96QZ7; [1]
  pKd: 3.98
DLG1_1, Q12959; [1]
  pKd: 4.39
MPP7, Q5T2T1; [1]
  pKd: below the threshold
LNX1_1, Q8TBB1; [1]
  pKd: below the threshold
GRIP1_4, Q9Y3R0; [1]
  pKd: below the threshold
MPP6, Q9NZW5; [1]
  pKd: below the threshold
GIPC2, Q8TF65; [1]
  pKd: below the threshold
GRIP1_3, Q9Y3R0; [1]
  pKd: below the threshold
DLG4_3, P78352; [1]
  pKd: 4.17
Inadl_2, Q8NI35; [1]
  pKd: below the threshold
GRIP2_6, Q9C0E4; [1]
  pKd: below the threshold
GORASP1, Q9BQQ3; [1]
  pKd: 3.53

## TGDTLEKFVEGL [CBP, Q92793]
FRMPD2_3, Q68DX3; [2]
  pKd: below the threshold
MAGI2_4, Q86UL8; [2]
  pKd: below the threshold
NHERF3_4, Q5T2W1; [2]
  pKd: below the threshold
LAP2, Q96RT1; [2]
  pKd: below the threshold
LNX1_3, Q8TBB1; [2]
  pKd: below the threshold
FRMPD2_2, Q68DX3; [2]
  pKd: below the threshold
GRIP2_7, Q9C0E4; [2]
  pKd: below the threshold
CASK, O14936; [2]
  pKd: below the threshold
RADIL, Q96JH8; [2]
  pKd: below the threshold
PDZD2_2, O15018; [2]
  pKd: below the threshold
APBA1_2, Q02410; [2]
  pKd: below the threshold
PCLO, Q9Y6V0; [2]
  pKd: below the threshold
FRMPD2_1, Q68DX3; [2]
  pKd: below the threshold
PDZD7_3, Q9H5P4; [2]
  pKd: below the threshold
LIN7B, Q9HAP6; [2]
  pKd: below the threshold
MAGI1_2, Q96QZ7; [2]
  pKd: below the threshold
DLG1_1, Q12959; [2]
  pKd: below the threshold
MPP7, Q5T2T1; [2]
  pKd: below the threshold
LNX1_1, Q8TBB1; [2]
  pKd: below the threshold
GRIP1_4, Q9Y3R0; [2]
  pKd: below the threshold
MPP6, Q9NZW5; [2]
  pKd: below the threshold
GIPC2, Q8TF65; [2]
  pKd: below the threshold
GRIP1_3, Q9Y3R0; [2]
  pKd: below the threshold
DLG4_3, P78352; [2]
  pKd: below the threshold
Inadl_2, Q8NI35; [2]
  pKd: below the threshold
GRIP2_6, Q9C0E4; [2]
  pKd: below the threshold
GORASP1, Q9BQQ3; [2]
  pKd: below the threshold

## DSKPPLPPDEWV [MERS-E, K9N5R3]
FRMPD2_3, Q68DX3; [3]
  pKd: 3.53
MAGI2_4, Q86UL8; [3]
  pKd: 3.73
NHERF3_4, Q5T2W1; [3]
  pKd: below the threshold
LAP2, Q96RT1; [3]
  pKd: 5.24
LNX1_3, Q8TBB1; [3]
  pKd: below the threshold
FRMPD2_2, Q68DX3; [3]
  pKd: below the threshold
GRIP2_7, Q9C0E4; [3]
  pKd: 3.86
CASK, O14936; [3]
  pKd: 3.48
RADIL, Q96JH8; [3]
  pKd: 4.06
PDZD2_2, O15018; [3]
  pKd: 5.11
APBA1_2, Q02410; [3]
  pKd: 4.59
PCLO, Q9Y6V0; [3]
  pKd: below the threshold
FRMPD2_1, Q68DX3; [3]
  pKd: below the threshold
PDZD7_3, Q9H5P4; [3]
  pKd: below the threshold
LIN7B, Q9HAP6; [3]
  pKd: below the threshold
MAGI1_2, Q96QZ7; [3]
  pKd: below the threshold
DLG1_1, Q12959; [3]
  pKd: below the threshold
MPP7, Q5T2T1; [3]
  pKd: below the threshold
LNX1_1, Q8TBB1; [3]
  pKd: below the threshold
GRIP1_4, Q9Y3R0; [3]
  pKd: below the threshold
MPP6, Q9NZW5; [3]
  pKd: below the threshold
GIPC2, Q8TF65; [3]
  pKd: below the threshold
GRIP1_3, Q9Y3R0; [3]
  pKd: below the threshold
DLG4_3, P78352; [3]
  pKd: 3.64
Inadl_2, Q8NI35; [3]
  pKd: below the threshold
GRIP2_6, Q9C0E4; [3]
  pKd: below the threshold
GORASP1, Q9BQQ3; [3]
  pKd: 4.29

## HRTCYLVTQL [ASIC3, Q9UHC3]
FRMPD2_3, Q68DX3; [2]
  pKd: below the threshold
MAGI2_4, Q86UL8; [2]
  pKd: 3.75
NHERF3_4, Q5T2W1; [2]
  pKd: 4.69
LAP2, Q96RT1; [2]
  pKd: 4.02
LNX1_3, Q8TBB1; [2]
  pKd: 3.55
FRMPD2_2, Q68DX3; [2]
  pKd: 3.76
GRIP2_7, Q9C0E4; [2]
  pKd: 3.48
CASK, O14936; [2]
  pKd: below the threshold
RADIL, Q96JH8; [2]
  pKd: 4.43
PDZD2_2, O15018; [2]
  pKd: 3.37
APBA1_2, Q02410; [2]
  pKd: 3.78
PCLO, Q9Y6V0; [2]
  pKd: below the threshold
FRMPD2_1, Q68DX3; [2]
  pKd: 3.37
PDZD7_3, Q9H5P4; [2]
  pKd: 5.47
LIN7B, Q9HAP6; [2]
  pKd: 3.38
MAGI1_2, Q96QZ7; [2]
  pKd: 4.83
DLG1_1, Q12959; [2]
  pKd: 3.97
MPP7, Q5T2T1; [2]
  pKd: 3.25
LNX1_1, Q8TBB1; [2]
  pKd: 4.03
GRIP1_4, Q9Y3R0; [2]
  pKd: below the threshold
MPP6, Q9NZW5; [2]
  pKd: 3.45
GIPC2, Q8TF65; [2]
  pKd: below the threshold
GRIP1_3, Q9Y3R0; [2]
  pKd: below the threshold
DLG4_3, P78352; [2]
  pKd: 3.6
Inadl_2, Q8NI35; [2]
  pKd: below the threshold
GRIP2_6, Q9C0E4; [2]
  pKd: 3.22
GORASP1, Q9BQQ3; [2]
  pKd: 3.93

## LHLHGTGIQV [EPHA7, Q15375]
FRMPD2_3, Q68DX3; [1]
  pKd: below the threshold
MAGI2_4, Q86UL8; [1]
  pKd: 3.83
NHERF3_4, Q5T2W1; [1]
  pKd: 3.81
LAP2, Q96RT1; [1]
  pKd: 3.63
LNX1_3, Q8TBB1; [1]
  pKd: 3.48
FRMPD2_2, Q68DX3; [1]
  pKd: below the threshold
GRIP2_7, Q9C0E4; [1]
  pKd: 3.82
CASK, O14936; [1]
  pKd: below the threshold
RADIL, Q96JH8; [1]
  pKd: 4.58
PDZD2_2, O15018; [1]
  pKd: below the threshold
APBA1_2, Q02410; [1]
  pKd: 4.22
PCLO, Q9Y6V0; [1]
  pKd: below the threshold
FRMPD2_1, Q68DX3; [1]
  pKd: 5.03
PDZD7_3, Q9H5P4; [1]
  pKd: below the threshold
LIN7B, Q9HAP6; [1]
  pKd: below the threshold
MAGI1_2, Q96QZ7; [1]
  pKd: below the threshold
DLG1_1, Q12959; [1]
  pKd: below the threshold
MPP7, Q5T2T1; [1]
  pKd: below the threshold
LNX1_1, Q8TBB1; [1]
  pKd: below the threshold
GRIP1_4, Q9Y3R0; [1]
  pKd: below the threshold
MPP6, Q9NZW5; [1]
  pKd: 3.88
GIPC2, Q8TF65; [1]
  pKd: below the threshold
GRIP1_3, Q9Y3R0; [1]
  pKd: below the threshold
DLG4_3, P78352; [1]
  pKd: below the threshold
Inadl_2, Q8NI35; [1]
  pKd: below the threshold
GRIP2_6, Q9C0E4; [1]
  pKd: 3.81
GORASP1, Q9BQQ3; [1]
  pKd: 4.23
